Legend:
[1] = test system: ΔM-N L-selectin-GFP/RFP in THP-1 cells; experiment: Phos-tag Western blot of L-selectin serine phosphorylation; type: cell-based, human; conditions: 100 nM PMA, 15 min; phos-tag gel
ERM = conditions: biochemically and in cells; cited from earlier work
From the text: The cytoplasmic tail of L-s ...

THP-1 cells = experiment: Antibody-mediated clustering (AMC) of L-selectin-GFP/RFP, FLIM/FRET; type: cell-based, human; conditions: DREG56 plus secondary antibody
From the text: (A) Schematic representation of the cleavage site, transmembrane domain (TMD), and cytoplasmic tail of human L-selectin. Red underlined region of the cleavage site denotes the amino acids that are deleted in ΔM-N L-selectin. […] Red arrow points to the position of the cut site of the L-selectin cleavage domain. (B) Cells expressing matched levels of L-selectin-GFP/RFP in the following forms: WT, ΔM-N, SSAA, ΔM-N^SSAA, and R357A were subjected to AMC using Alexa Fluor 647-conjugated DREG56 or isotype-matched control, followed by goat anti-mouse secondary antibody (see Materials and Methods for more detail). Cells were plated onto poly-L-lysine-coated coverslips and prepared for FLIM/FRET analysis (see materials and methods). FLIM was used to measure the FRET efficiency between the GFP/RFP donor/acceptor pairs as a direct function of cytoplasmic tail clustering […]. At least 45 individual cells were analyzed over 3 independent clustering assays. (C) Representative images are shown for each cell line. The lifetime of fluorescence (Lftm) is expressed in a pseudocolour scale from red (low lifetime with a very high probability of interaction) to blue (high lifetime with a very low probability of interaction). […] Cells were lysed directly in protein loading buffer (containing the reducing agent, dithiothreitol) and resolved onto standard (lower panel) or phos-tag (upper panel) polyacrylamide gels. Antibodies to GFP and RFP were used to, respectively, probe ΔM-N and ΔM-N^SSAA on Western blots. […] Statistics: One-Way ANOVA Tukey's multiple comparison test. **p ≤ 0.01; ***p ≤ 0.001; ****p ≤ 0.0001.
THP-1 cells were adjusted the night before AMC to a density of 0.5 ×10^6 cells per mL. On the same day, 13 mm diameter glass coverslips (thickness “1”) were placed into the base of a 24 well dish, spotted with 100 μL of poly-L-lysine (PLL) to immobilize according to manufacturer's instruction. On the day of the assay, THP-1 cells were counted and adjusted to a density of 1 ×10^6 per mL in 500 μL containing antibody labeling buffer (RPMI culture medium containing FcR block [Miltenyi Biotec]). Cells were labeled with 2 μg per mL DREG56 for 30 min at 4°C, followed by washing (by centrifugation at 300 g and resuspension) in ice cold culture media to remove excess unbound antibody and then incubated back in ice cold labeling buffer containing secondary antibody conjugated to Alexa Fluor […] (Thermo Fisher) for a further 30 min at 4°C. Cells were then washed twice in ice cold neat RPMI and resuspended to 100 μL of neat ice cold RPMI before 80 μL of the cell suspension was seeded onto 13 mm diameter glass coverslips (thickness = “1”), which were pre-coated with PLL-coated the night before. The seeded cells were placed into a humidified cell culture incubator at 37°C and 5% CO2 for 10 min to drive clustering. Adhered cells were flooded in excess 4% paraformaldehyde and fixed for 15 min at room temperature. Fixed coverslips were washed 3 times in PBS and then treated in 10 mg/mL of Sodium Borohydride dissolved in phosphate buffered saline for 10 min at room temperature (to eliminate autofluorescence and enhance signal to noise ratios). Coverslips were subsequently washed in PBS to remove sodium borohydride and mounted using DAKO mounting medium.
FLIM measurement of FRET was performed with a multiphoton microscope system as described previously ([8], [23]). A Nikon TE2000E inverted microscope, combined with an in-house scanner and Chameleon Ti:Sapphire ultrafast pulsed multiphoton laser (Coherent Inc.), was used for excitation of GFP (at 890 nm). Fluorescence lifetime imaging capability was provided by time-correlated, single-photon counting electronics (SPC 700; Becker & Hickl). A 40 × objective (NA 1.3) was used throughout (CFI60 Plan Fluor; Nikon), and data were acquired at 500 ± 20 nm through a bandpass filter (35–5040; Coherent Inc.). […]

calmodulin = conditions: transmigrating pseudopods; ref previously published (no number given at b28; b24 cites ref 8); cited from earlier work
[2] = test system: THP-1 cells over TNF-α-activated HUVEC; experiment: Pseudopod protrusion scoring in TEM under flow; type: cell-based, human
Experimental: (A) The number of protrusions formed over this period was scored as: zero, one, two, or >2. (B) The percentages of cells bearing these protrusions were scored at specific time points: 6 min (blue bars), 15 min (green bars), or 25 min (red bars). Supplementary Videos 2, 3, 4 provide examples of cells producing a range of protrusions as TEM proceeds. Data represent SEM of 3 fields of view per flow experiment, conducted on three separate occasions, and at least 180 cells analyzed per group. Values of the vertical lines indicate the differences in protrusion number (specifically “zero” and “two”) corresponding to each of the cell lines, for which statistical significance is shown in Table 1.
All flow experiments were performed using a 35 mm diameter Glycotech parallel plate flow chamber. Perfusion experiments were performed at 1.5 dyn/cm^2 using a Harvard Apparatus 2000 PHD syringe pump. Perfusion media consisted of: RPMI supplemented with L-glutamine, 10% FCS, 1% penicillin/streptomycin, 50 μM β-mercaptoethanol, and 25 mM HEPES. Human Umbilical Vein Endothelial Cells (HUVEC–Lonza) were seeded onto 35 mm diameter glass coverslips (no. 1 thickness; VWR) that were pre-coated with 10 μg/mL fibronectin (37°C for at least 1 h). Before each perfusion assay, HUVEC were stimulated overnight (16 h) with 10 ng/mL carrier-free recombinant human TNF-α (R&D Systems). Each perfusion assay was performed by injecting a bolus of cells for 6 min, followed by just perfusion media (without cells) for the […]. THP-1 cells were perfused at a density of 0.5 ×10^6 cells per mL. THP-1 cells treated with 10 μM TAPI-0 required a preincubation time of 10 min at 37°C before perfusion over TNF-α-activated HUVEC. Note that 10 μM TAPI-0 was also supplemented in the perfusate. Stills were acquired once every 10 seconds using 10 × objective lens.

In the case of `CCCCCCCCCCCCCC(=O)O[C@@H]1[C@@H](C)[C@@]2(O)[C@@H](C=C(CO)C[C@]3(O)C(=O)C(C)=C[C@@H]23)[C@@H]2C(C)(C)[C@]12OC(C)=O` [PMA, phorbol myristate acetate], the “serine phosphorylation of L-selectin” value [1] is reported as “serine phosphorylation was detected only when cells were robustly stimulated with the phorbol ester, PMA”.

B1: R357A: ERM-binding mutant of L-selectin, arginine 357 mutated to alanine (protein)
chain: WTYHYSEKPMNWQRARRFCRDNYTDLVAIQNKAEIEYLEKTLPFSRSYYWIGIRKIGGIWTWVGTNKSLTEEAENWGDGEPNNKKNKEDCVEIYIKRNKDAGKWNDDACHKLKAALCYTASCQPWSCSGHGECVEIINNYTCNCDVGYYGPQCQFVIQCEPLEAPELGTMDCTHPLGNFSFSSQCAFSCSEGTNLTGIEETTCGPFGNWSSPEPTCQVIQCEPLSAPDLGIMNCSHPLASFSFTSACTFICSEGTELIGKKKTICESSGIWSNPSPICQKLDKSFSMIKEGDYNPLFIPVAVMVTAFSGLAFIIWLARALKKGKKSKRSMNDPY
modifications: left off: eGFP (donor copy) or mCherry (acceptor copy, called RFP), C-terminal, kept
For B1, the L-selectin/ERM interaction (ERM) is given as “block L-selectin/ERM interaction”, the “change in FRET efficiency on AMC or versus comparator (in words)” value (THP-1 cells) is given as “lacked any significant increase in FRET efficiency” and the “FRET efficiency after AMC” value (THP-1 cells; 10 min at 37°C, GFP/RFP pair, at least 45 cells, 3 independent assays) is given as 2.47%.

B2: S367A: L-selectin with Ser^367 mutated to alanine, GFP-tagged, expressed in THP-1 cells (protein, UniProt P14151 39-372, looked up, variant S367A)
L-selectin: WTYHYSEKPMNWQRARRFCRDNYTDLVAIQNKAEIEYLEKTLPFSRSYYWIGIRKIGGIWTWVGTNKSLTEEAENWGDGEPNNKKNKEDCVEIYIKRNKDAGKWNDDACHKLKAALCYTASCQPWSCSGHGECVEIINNYTCNCDVGYYGPQCQFVIQCEPLEAPELGTMDCTHPLGNFSFSSQCAFSCSEGTNLTGIEETTCGPFGNWSSPEPTCQVIQCEPLSAPDLGIMNCSHPLASFSFTSACTFICSEGTELIGKKKTICESSGIWSNPSPICQKLDKSFSMIKEGDYNPLFIPVAVMVTAFSGLAFIIWLARRLKKGKKSKRAMNDPY
modifications: C-terminal GFP tag
In the case of B2, the “interaction of calmodulin with L-selectin” value (calmodulin) is listed as “significantly reduced interaction of calmodulin”, the “protrusive activity profile in TEM (in words)” value ([2]; 6, 15 and 25 min of flow over TNF-α-activated HUVEC) is listed as “possessed the fewest protrusions over the recorded period, differing significantly from WT and S364A L-selectin-expressing cell lines” and the “cells with 2 protrusions” value ([2]; 15 min time point, mean of 3 fields of view per flow experiment, three occasions, at least 180 cells per group, significance ** S367A p ≤ 0.01 (Tukey), % printed) is listed as 13.7%. The “cells with 0 protrusions” value ([2]; 15 min time point, mean of 3 fields of view per flow experiment, three occasions, at least 180 cells per group, significance *** S367A p ≤ 0.001, ** SSAA p ≤ 0.01 (Tukey), % printed) was 34.4%.
